The target of test [1] is T1, K40 of α-tubulin (Tetrahymena MEC17-KO axonemes or tubulin) (Tetrahymena thermophila, UniProt P41351).
T1 construct: Total tubulin was purified from the MEC17-KO strain of Tetrahymena; endogenous in cells; host or cells: Tetrahymena MEC17-KO strain (axonemes from cilia, or DEAE-purified tubulin)
Put plainly: In vitro tubulin acetyltransferase assay: activity of MEC-17 enzyme preparations. Conditions: for αTAT activity on MEC17-KO axonemes: with acetyl-CoA, western 6-11 B-1. The class given is biochemical. The source says:
(§1) To disrupt the MEC-17 gene in Tetrahymena, we used homologous DNA recombination with a fragment carrying the neo4 marker that replaced the coding region. MEC-17 was overexpressed in Tetrahymena using the MTT1 cadmium-dependent promoter. In C. elegans, MEC-12-K40, MEC-12-Q40, and MEC-12-R40 transgenes were introduced into a single site on chromosome II in the EG4322 strain. Animals homozygous for a MEC-12 transgene and homozygous for the mec-12(e1607) allele were obtained by standard crosses. All touch sensation assays in C. elegans were done using blind scoring. To deplete human MEC-17 (C6Orf134) mRNA in Hela cells, we introduced MEC-17-specific siRNAs (ON-TARGETplus pool, Dharmacon) using Oligofectamine (Invitrogen). To knockdown mec17 expression in zebrafish, MOs designed to target the MEC-17 mRNA (Open Biosystems) were injected into early embryos. ATG-MEC17 MO targets the translation initiation site of mec17 mRNA. SP-MEC17 MO targets the exon3/intron3-4 splice junction, and is expected to result in an aberrant splicing isoform of exon2 to exon 4, producing a frameshift mutation and associated protein truncation. As a negative control, we injected MO with a random sequence (oligo-25N, Gene Tools) or a 5 bp mismatch to the ATG-MEC17 MO. Live embryos were scored for phenotypes at 48 hpf. To produce a recombinant MEC-17 protein, the cDNA sequence of the murine MEC-17 (BF135007, Open Biosystems) was subcloned into pGEX-3× plasmid (GE Healthcare), expressed in BL21 E. coli cells as a GST fusion and purified using GST-Bind kit (Novagen). The in vitro acetylation assays were performed in 50 mM Tris-HCl pH 8.0, […], 0.1 mM EDTA, with purified Tetrahymena MEC-17-KO axonemes or tubulin (purified using DEAE chromatography), recombinant GST-MmMEC-17 enzyme and 10 μM acetyl-CoA. The reaction was detected by western blotting using anti-acetyl-K antibodies.
(§2) To prepare MEC 17-KO axonemes, Tetrahymena cells were grown to the mid-log phase and deciliated by pH shock (Wloga et al., 2008 Eukaryot Cell 7:1362-1372). Cilia were suspended in 1 ml of 1% NP-40 in the axoneme buffer (30 mM HEPES, 20 mM potassium acetate, 5 mM MgSO4, 0.5 mM EDTA, pH 7.6) with Complete protease inhibitors (Roche). After 1-2 min on ice, axonemes were collected by centrifugation (20,000×g, 15 min, 4° C.), suspended in the in vitro acetylation reaction buffer (50 mM Tris HCl, pH 8.0, 10% glycerol, 0.1 mM EDTA, 1 mM DTT) with protease inhibitors and stored at −80° C.
(§3) Total tubulin was purified from the MEC17-KO strain of Tetrahymena using a protocol modified after Yakovich and colleagues (Yakovich et al., 2006 Exp Parasitol 114:289-296). […]

For test [2], the target named is T2, K40 of α-tubulin (Tetrahymena MEC17-KO axonemes or tubulin) (Tetrahymena thermophila, UniProt P41351, K40R).
T2 construct: Total tubulin was purified from the MEC17-KO strain of Tetrahymena; endogenous in cells; host or cells: Tetrahymena MEC17-KO strain (axonemes from cilia, or DEAE-purified tubulin)
T2 sequence (P41351 whole entry K40R): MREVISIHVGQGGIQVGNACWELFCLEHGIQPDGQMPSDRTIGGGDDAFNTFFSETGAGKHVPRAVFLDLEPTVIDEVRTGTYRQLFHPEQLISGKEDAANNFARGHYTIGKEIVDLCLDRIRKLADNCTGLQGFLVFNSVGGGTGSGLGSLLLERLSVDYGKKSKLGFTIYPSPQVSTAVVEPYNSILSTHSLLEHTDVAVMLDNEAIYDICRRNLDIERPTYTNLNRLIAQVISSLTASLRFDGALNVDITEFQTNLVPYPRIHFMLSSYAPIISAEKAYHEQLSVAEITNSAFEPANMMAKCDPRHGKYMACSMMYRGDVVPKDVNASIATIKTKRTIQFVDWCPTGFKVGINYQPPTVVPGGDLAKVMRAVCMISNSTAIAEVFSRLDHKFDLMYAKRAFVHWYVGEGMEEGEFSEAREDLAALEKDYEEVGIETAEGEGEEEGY
T2 sequence (P41352 whole entry, further chain): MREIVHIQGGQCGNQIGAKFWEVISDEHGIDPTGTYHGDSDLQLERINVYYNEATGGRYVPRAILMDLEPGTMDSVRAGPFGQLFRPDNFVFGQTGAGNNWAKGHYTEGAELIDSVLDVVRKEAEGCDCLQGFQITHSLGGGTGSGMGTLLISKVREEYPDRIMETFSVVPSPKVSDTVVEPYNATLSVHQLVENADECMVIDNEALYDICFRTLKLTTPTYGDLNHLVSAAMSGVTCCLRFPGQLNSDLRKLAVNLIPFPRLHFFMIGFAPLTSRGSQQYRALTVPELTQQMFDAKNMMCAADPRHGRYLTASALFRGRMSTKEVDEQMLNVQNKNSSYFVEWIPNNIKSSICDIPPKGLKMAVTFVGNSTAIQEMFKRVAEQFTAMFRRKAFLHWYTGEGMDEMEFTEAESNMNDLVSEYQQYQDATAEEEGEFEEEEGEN
The description is as above. The class given is biochemical. To be noted: pan acetyl-K antibodies.
Source text: as §1, §2, §3

T1 sequence (P41351 whole entry): as the sequence (P41351 whole entry K40R) above, with R40K counted along it
T1 sequence (P41352 whole entry partner): as the sequence (P41352 whole entry, further chain) above

B1: GST-MmMEC-17: recombinant murine MEC-17 expressed in E. coli as a GST fusion (protein)
chain: MEFPFDVDALFPERITVLDQHLRPPARRPGTTTPARVDLQQQIMTIVDELGKASAKAQHLPAPITSALRMQSNRHVIYILKDTSARPAGKGAIIGFLKVGYKKLFVLDDREAHNEVEPLCILDFYIHESVQRHGHGRELFQHMLQKERVEPHQLAIDRPSPKLLKFLNKHYNLETTVPQVNNFVIFEGFFAHQHRPPTSSLRATRHSRAAVADPIPAAPARKLPPKRAEGDIKPYSSSDREFLKVAVEPPWPLNRAPRRATPPAHPPPRSSSLGNSPDRGPLRPFVPEQELLRSLRLCPPHPTARLLLATDPGGSPAQRRRTRGTPWGLVAQSCHYSRHGGFNTSFLGTGNQERKQGEQEAEDRSASEDRVLLLDGSGEEPTQTGAPRAQAPPPQSWTVGGDIMNARVIRNLQERRSTRPW
modifications: left off: a dimerising Fc or GST
notes: recombinant murine MEC-17 expressed in E. coli as a GST fusion
Regarding B1, the “K40 acetylation activity on purified tubulin” value in test [1] (highly purified tubulin from MEC17-KO cells) is given as “robust K40 acetylation activity”. In addition, in test [1], the “αTAT activity on MEC17-KO axonemes” value is given as “robust αTAT activity”. For the same molecule, the “acetylation of R40 axonemes (K40R mutant)” value in test [2] is on record as “failed to acetylate”.

B2: GFP-Mec17p: crude GFP-Mec17p-enriched fraction obtained from transgenic Tetrahymena (protein)
chain: MFKNQLLSLSLRIQKLRLCRQGNQLKVLQKSINQLLFKTQSIDQILQYLQQKKKTHQSILENQNQHIHSIGLVSQLTNQKINKQKNQKAMEFNFIINKLVQLDQQGLGVYIPRASRSKVSSQQEQQLGQVLNTMGERSAIAQGLKQVITNYDKVQGTDQRVYIVAEGRTCQGFLKVGQKNLFYRDMMGNIKEIKPLCVLDFYVHESCQRQGYGKLLFEYMIQCEQTSPEKLAYDRPSPKLIAFLKKHYNLVKYIAQNNNFVVFDQYFRSDASSQNKQNQNTRSYSQPYSDYSSQIPTNYPQQQQQQSNSKSYPYKQENNIDLMQHSSSRNNKEFLNAGRAILSKEEIYKKDNLSQQNIENTLNNINNSQYSTKSQQQQQYQKDYQLDKYENNWGADKNIKKPPFPGQDRQLDKIQQKIQQTERELDVVNQQIIKQRQNLSQDPLTQNHRAQNVYNTNQFGTSPWAQTGFNYYSTSSSNYGNHYTYYKK
modifications: left off: large carriers
notes: crude GFP-Mec17p-enriched fraction obtained from transgenic Tetrahymena
Take B2: the “αTAT activity on MEC17-KO axonemes” value in test [1] is “had K40 αTAT activity”.

The record behind these values is patent publication US20140248635A1, “ALPHA-TUBULIN […]” (University of Georgia Research Foundation, Inc., priority 2010, published 2014).
